The results in this text go back to patent US20040156820A1, “Adjuvant combination formulations” (priority 2000, published 2004).

Data set [1] is classed as in vivo, cynomologous monkeys (Macaca fagscicularis). Conditions: cynomologous monkeys, five immunizations weeks 0, 4, 8, 18, 23. The procedure:
Immunizations: All intranasal immunizations were delivered with a 100 μl metered dose nasal spray device. All intramuscular injections were given in the quadriceps muscle with needle and syringe. All animals were immunized on a schedule of 0, 4, 8, 18 and 23 weeks.
Group 1: 1000 μg C4 (E9V)-V389.6P peptide in sterile normal saline, final volume 200 μl (100 μl each nostril).
Group 2: 1000 μg C4 (E9V)-V389.6P peptide, 50 μg 529 SE, and 250 μg human GM-CSF, final oil concentration 1%, final volume 1.0 ml (500 μl each quadriceps by IM injection).
All animals were closely monitored for changes in body temperature during the 24 hours immediately following each administration of the immunogen.

A further data set concerns Aβ1-42 peptide. Description: Reciprocal anti-Aβ1-42 IgG endpoint total and subclass titers (Example 4). Format: in vivo. Conditions: Swiss-Webster mice n=10, 30 μg Aβ1-42 s.c. week 0 and 3. How it is done: Formulations were mixed by vortex immediately prior to immunization.
After incubation, wells were washed, and developed with ABTS. Wells were read at 405 nm. Titers were standardized using control sera.
The same protocol was followed for analysis of […] peptide-specific antibody and subclass distribution, except that a concentration of 0.3 μg/ml per microtiter plate was used.
Outbred Swiss-Webster mice were divided into groups of ten mice each. Each group received 30 μg of Aβ1-42 peptide, which corresponds to an internal 42 amino acid long region of APP. […] Mice were immunized subcutaneously in the rump with a total volume of 0.2 ml, divided equally into each of two sites at the base of the tail/rump. Immunizations were administered at week 0 and week 3.
Mice were bled at days 0, 20, 35 and 70. Serum was analyzed from individual mice. Reciprocal endpoint anti-Aβ1-42 peptide IgG endpoint total class and subclass titers were measured from individual sera (n=10 Swiss-Webster) at week 5 and at week 10.

Aβ1-42 peptide, sequence (P05067 672-713): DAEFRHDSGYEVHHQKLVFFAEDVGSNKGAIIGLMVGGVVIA

Consider `CC[C@H](C)[C@H](NC(=O)[C@H](CO)NC(=O)[C@H](CC(C)C)NC(=O)[C@H](CCCNC(=N)N)NC(=O)[C@H](CCC(=O)O)NC(=O)[C@H](CCCNC(=N)N)NC(=O)[C@@H](NC(=O)[C@H](CC(N)=O)NC(=O)[C@H](CC(N)=O)NC(=O)[C@H](CC(N)=O)NC(=O)[C@@H]1CCCN1C(=O)[C@H](CCCNC(=N)N)NC(=O)[C@@H](NC(=O)[C@H](C)NC(=O)[C@H](Cc1ccc(O)cc1)NC(=O)[C@H](CCSC)NC(=O)[C@H](C)NC(=O)[C@H](CCCCN)NC(=O)CNC(=O)[C@@H](NC(=O)[C@@H](NC(=O)[C@H](CCC(N)=O)NC(=O)[C@H](Cc1c[nH]c2ccccc12)NC(=O)[C@H](CCSC)NC(=O)[C@H](CC(N)=O)NC(=O)[C@@H](NC(=O)[C@@H](NC(=O)[C@H](CCC(N)=O)NC(=O)[C@@H](N)CCCCN)[C@@H](C)CC)[C@@H](C)CC)C(C)C)C(C)C)[C@@H](C)O)[C@@H](C)O)C(=O)NCC(=O)N1CCC[C@H]1C(=O)NCC(=O)N[C@@H](CCCNC(=N)N)C(=O)N[C@@H](C)C(=O)N[C@@H](Cc1ccccc1)C(=O)N[C@@H](Cc1ccc(O)cc1)C(=O)N[C@@H](C)C(=O)N[C@@H](CCCNC(=N)N)C(=O)N[C@@H](CCCNC(=N)N)C(=O)O` [C4(E9V)-V389.6P peptide alone], for which the “Immunogen safety and tolerability” value in data set [1] was “extremely well tolerated”.

For the molecule “None: 30 μg Aβ1-42 peptide (SEQ ID NO:6) without adjuvant”, in the data set with Aβ1-42 peptide, the “Anti-Aβ1-42 Week 5 IgG Endpoint Titers, Geometric Mean” value is recorded as 12,976; the “Anti-Aβ1-42 Week 10 IgG2a Endpoint Titers, Geometric Mean” value was 5,910; the “Anti-Aβ1-42 Week 10 IgG Endpoint Titers, Geometric Mean” value is recorded as 21,426.

B1: GM-CSF (10): recombinant murine granulocyte macrophage colony stimulating factor, given with Aβ1-42 peptide (protein, UniProt P01587 18-141, looked up)
Granulocyte-macrophage …: APTRSPITVTRPWKHVEAIKEALNLLDDMPVTLNEEVEVVSNEFSFKKLTCVQTRLKIFEQGLRGNFTKLKGALNMTASYYQTYCPPTPETDCETQVTTYADFIDSLKTFLTDIPFECKKPGQK
Consider B1, for which, in the data set with Aβ1-42 peptide, the “Anti-Aβ1-42 Week 5 IgG1 Endpoint Titers, Geometric Mean” value is listed as 8,654; the “Anti-Aβ1-42 Week 5 IgG2a Endpoint Titers, Geometric Mean” value is given as 25,554; the “Anti-Aβ1-42 Week 5 IgG Endpoint Titers, Geometric Mean” value was 214,497; the “Anti-Aβ1-42 Week 10 IgG1 Endpoint Titers, Geometric Mean” value is listed as 8,483. Also, in the data set with Aβ1-42 peptide, the “Anti-Aβ1-42 Week 10 IgG2a Endpoint Titers, Geometric Mean” value was 64,910 and the “Anti-Aβ1-42 Week 10 IgG Endpoint Titers, Geometric Mean” value is reported as 1,049,414.
